Experimental data reported in patent publication US6673902B2, “Cyclin D binding factor, and uses thereof” (St. Jude Children's Research Hospital, priority 1996, dated 2004).

Assays:
wild-type MEFs = assay: Apoptosis assay in wild-type MEFs deprived of serum; format: cell-based, mouse
Procedure: Apoptosis assays. Wild-type MEFs infected with the indicated retroviruses for 36 hours were starved for serum for 24 hours. Viability was determined by trypan blue dye exclusion, and DNA fragmentation was monitored by a terminal deoxynuclectidyl transferase (FACS-TUNEL) assay and by measurement of subdiploid DNA content of propidium iodide-stained nuclei [Zindy et al., Genes Dev. 12:2424-2433 (1998)].
On the other hand, MEFs overexpressing c-Myc, E2F-1, or E1A are exquisitely sensitive to apoptosis. […] 12:2424-2433 (1998); De Stanchina et al., Genes Dev. 12:2434-2442 (1998)].

recombinant DMP1 = molecular target: T1, recombinant DMP1 (Mus musculus, UniProt Q8CE22); assay: EMSA competition with Sf9 lysates producing recombinant DMP1; format: binding; details: excess unlabeled oligonucleotide
T1 construct: made in house; host or cells: Sf9 insect cells, pAcYM1 baculovirus vector; used as crude lysate (~4 ng DMP1 per reaction)
T1 sequence (Q8CE22 1-761): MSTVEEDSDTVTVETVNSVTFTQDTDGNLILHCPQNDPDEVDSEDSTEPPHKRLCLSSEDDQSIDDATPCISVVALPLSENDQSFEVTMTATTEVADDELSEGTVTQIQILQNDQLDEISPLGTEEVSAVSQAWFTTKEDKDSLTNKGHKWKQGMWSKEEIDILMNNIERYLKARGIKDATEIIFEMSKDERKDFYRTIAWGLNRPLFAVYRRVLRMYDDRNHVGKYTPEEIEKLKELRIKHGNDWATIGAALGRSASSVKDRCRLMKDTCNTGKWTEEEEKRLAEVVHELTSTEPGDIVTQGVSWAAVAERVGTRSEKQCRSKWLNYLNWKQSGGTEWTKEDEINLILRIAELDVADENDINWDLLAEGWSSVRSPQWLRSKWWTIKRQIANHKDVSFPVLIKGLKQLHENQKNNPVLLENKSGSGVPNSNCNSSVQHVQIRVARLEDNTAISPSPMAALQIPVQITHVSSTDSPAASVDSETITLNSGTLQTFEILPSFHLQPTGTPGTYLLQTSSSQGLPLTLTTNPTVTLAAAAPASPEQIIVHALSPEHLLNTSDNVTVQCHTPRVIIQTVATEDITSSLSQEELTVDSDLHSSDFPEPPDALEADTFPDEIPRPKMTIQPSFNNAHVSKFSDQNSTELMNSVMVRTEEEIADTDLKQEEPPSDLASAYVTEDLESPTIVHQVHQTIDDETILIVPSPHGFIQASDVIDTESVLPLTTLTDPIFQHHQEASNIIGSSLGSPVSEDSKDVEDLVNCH
Procedure: Double-stranded oligonucleotides containing potential DMP1 binding sites (BS1 and BS2) and mutated versions (M1-M4) (FIG. 5B) are end-labeled with ^32P using the Klenow fragment of DNA polymerase and α-^32P-dATP (6000 Ci/mmol; Dupont NEN) (8). Nuclear extracts from mouse NIH-3T3 or CTLL cells are prepared with buffer containing 0.4 M NaCl (2). Mammalian cell extracts (15 μg protein) or Sf9 lysates (corresponding to 5×10^2 infected cells) containing ˜4 ng recombinant DMP1 are mixed with 3 ng of ^32P-labeled probe (1×10^5 cpm) in 15 ul Binding buffer containing 2.5 μg of poly(dI-dC) and 2.5 μg BSA and incubated at 4° C. for 30 minutes. For competition experiments, the indicated amounts of unlabeled oligonucleotides are added to the reactions before addition of the labeled probe. In some experiments, a bacterially produced GST-Ets2 fusion protein containing the complete Ets2 DNA-binding domain (10) is used in place of Sf9 extracts containing recombinant DMP1. Protein-DNA complexes are separated on nondenaturing 4% polyacrylamide gels as described (8). Where indicated, antiserum to DMP1 together with 2.5 μg salmon testis DNA (Sigma; used to reduce nonspecific DNA binding activity caused by serum addition) is preincubated with extracts for 30 minutes at 4° C. prior to initiation of binding reactions. Immune complexes are either removed by adsorption to protein A-Sepharose beads (immunodepletion experiments) or are allowed to remain (“supershift” experiments).
Using electrophoretic mobility shift assays (EMSA) performed after mixing a titrated excess (3 ng) of ^32P-end labeled BS1 probe with Sf9 lysates producing DMP1 (˜4 ng recombinant protein per reaction), a BS1-containing protein complex is detected that was competed with an excess of unlabeled BS1 oligonucleotide but not with mutant oligonucleotides M1 and M2 (FIG. 6A). […] More subtle mutations within this region may be tolerated, because high concentrations of M4 competed for BS1 binding to both Ets2 and DMP1 in subsequent studies (FIG. 5B and see below). DMP1 also binds a BS2 probe, and the binding is competed by excess BS2 or BS1 (FIG. 6B). In agreement with the site selection frequencies (FIG. 5A), binding of ^32P-BS1 under equivalent conditions was competed more efficiently by excess unlabeled BS1 than by BS2 (FIG. 6B). […] In agreement, Ets2 binding to BS1 could be competed with excess unlabeled BS1 and M3, but not by BS2 (FIG. 6C). Therefore, although both DMP1 and Ets2 can each bind to BS1 sequences, their exclusive interactions with BS2 and M3, respectively, help to distinguish DMP1 and Ets binding activities (summarized in FIG. 5B).

competition for 32P-BS1 probe binding to DMP1 (recombinant DMP1)	competition for BS2 probe binding to DMP1 (recombinant DMP1)	Substance	apoptosis / cell death (wild-type MEFs)
–	–	DMP1: murine cyclin D-associated myb-like transcription factor, 761 amino acids, SEQ ID NO:1	did not trigger apoptosis
does not compete	does not compete	M3: DMP1 deletion mutant (NcoI), amino acids 1-458 of SEQ ID NO:1	–
